Measurements from patent publication US20110009597A1, “RECOMBINANT GANODERMA LUCIDIUM IMMUNOMODULATORY PROTEIN (rLZ-8) AND USES THEREOF” (priority 2008, published 2011).

Assays:
WBC = experiment: Cyclophosphamide low-leucocyte rat model, WBC; assay type: in vivo, rats; set-up: unit not given here
Procedure: rLZ-8 preparation of sterile saline. Divide them into 20 μg·kg^−1, 10 μg·kg^−1, 5 μg·kg^−1, 2.5 μg·kg^−1, 1.25 μg·kg^−1, 0.625 μg·kg^−1, 0.31 μg·kg^−1 dose groups.
Genlei™ Scimax™ [Recombinant human granulocyte colony-stimulating factor injection (rhG-CSF)], production lot: 20060403; 75 μg/vial is prepared with sterile normal saline into the preparation of 9.45 μg·ml^−1, 0.1 ml/vial.
Cyclophosphamide (CP), the production lot number 050216; 200 mg/vial is prepared with sterile normal saline into the preparation of 20 mg·ml^−1, 0.1 ml/vial, namely, 49 mg·kg^−1.
Normal control group, protein low-dose group, protein medium-dose group, protein high-dose group, positive control group (Genlei™ Scimax™)
Excluding the normal control group (given same normal saline), each group of rats were given tail vein injection of cyclophosphamide, 20 mg·ml^−1, 0.1 ml/vial, for 3 consecutive days. On 3rd day, rat tail venous blood sampling, sent to Jilin University First Hospital laboratory, cell analyze the number of WBC. After successful modeling, they were given to the above groups respective dose of rLZ-8 and positive drugs (Genlei™ Scimax™) treatment, the normal control group and CP groups were given same normal saline, on the 3rd, 7th and 14th day of the treatment to draw venous blood from rats tail respectively, sent to Jilin University First Hospital testing the numbers of WBC. Compare WBC changes before and after the treatment for analysis of drug efficacy.

[1] = system: systemic allergic reaction caused by BSA; experiment: Systemic allergic reaction in mice caused by BSA; settings: for Death number/total / Sensitization number/total: sensitization BSA (i.p.)
Procedure: Prepare rLZ-8 700 μg/ml^−1 with saline and Aluminium hydroxide with PBS buffer. Male mice, 15 vial, were divided into 4 groups: two rLZ-8 dosage groups, positive group, normal control group. […] Positive reaction standard: tic or death. Negative reaction standard: normal.

[2] = system: Human Chronic Myelogenous Leukemia K562 Cells; experiment: Lethal effect of rLZ-8 on K562 cells (MTT, OD570nm); assay type: cell-based
Procedure: After sterilization of rLZ-8, we prepared 6 concentrations using IMDM culture medium, which are respectively 3.125 μg·ml^−1, 6.25 μb·ml^−1, 12.5 μg·ml^−, 25 μg·ml^−1, 50 μg·ml^−1, 100 μg·ml^−1.
On 96-orifice culture plate, the pilot aperture plus K562 tumor cells 0.1 ml and rLZ-8 0.1 ml, rLZ-8 concentrations from low to high; negative control group plus K562 tumor cells and culture medium of the 0.1 ml respectively; positive drug control group arsenic trioxide As2O3; make six-aperture multipunches for each group. Placing in 37° C., 5% CO2 incubator 48 h, adding MTT15 μl (5 mg ml^−1) prior to the termination of 4 h, after the termination of cell culture by adding 100 μl 0.1 mol L^−1 hydrochloric acid isopropyl alcohol, testing OD values570nm on the enzyme immunosorbent detector.

K562 = experiment: PI single stained flow cytometry, apoptosis of K562; assay type: cell-based
Procedure: Fluorescence microscope, model Leica ASLMD, K562, NB4. rLZ-8 is classified into high, medium and low three-dose groups respectively, now we prepare them with IMDM culture medium containing 2% FCS into the preparation of 2.5 μg·ml^−1, 0.5 μg/ml, 0.1 μg·ml^−1. […] (PI) 50 μg·ml ^−1.
Establish K562 as the normal control group, rLZ-8 low-dose group (0.1 μg·ml^−1), rLZ-8 medium dose group (0.5 μg·ml^−1), rLZ-8 high-dose group, (2.5 μg·ml^−1); set NB4 as the normal control group, rLZ-8 low-dose group (0.1 μg·ml^−1), rLZ-8 medium dose group (0.5 μg·ml^−1), rLZ-8 high-dose group, (2.5 μg·ml^−1).
Mix K562 and NB4 cells into 24-orifice plate respectively, and supply rLZ-8 in different concentrates, 1 ml/orifice, set 3-orifice multipunches for each group. Put them in 37° C., 5% CO2 incubator for 24 h, collect the cells of each concentrate, PBS washes twice and regulates the cell density to 1×10^6/ml, 70% ice ethanol fixation, adjusts to −20° C. and stays overnight. Wash the cells with PBS twice after fixing the cells, add PI (end density 50 μg·ml^−1) for room temperature and lucifuged hatching 10 min, 1000 r·min^−1 centrifuge 5 min, clear supernatant with disposable 400μ. IPBS re-suspension precipitation. And test on computer in 1 h.

[3] = rLZ-8 dose 2, shock BSA-rLZ-8 (i.v.)

B1: rLZ-8: Recombinant Ganoderma Lucidum Immune Regulatory Protein expressed in Pichia pastoris (protein, UniProt P14945 2-111, looked up)
Immunomodulatory protein Ling …: SDTALIFRLAWDVKKLSFDYTPNWGRGNPNNFIDTVTFPKVLTDKAYTYRVAVSGRNLGVKPSYAVESDGSQKVNFLEYNSGYGIADTNTIQVFVVDPDTNNDFIIAQWN
WBC; rLZ-8 0.31 μg·kg−1
  WBC, 3rdday of medication: 1.9 ± 0.17
  WBC, 7thday of medication: 13.5 ± 0.13
  WBC, 14thday of medication: 11.0 ± 0.31
WBC; rLZ-8 0.62 μg·kg−1
  WBC, 3rdday of medication: 5.2 ± 0.14
  WBC, 7thday of medication: 12.8 ± 0.74
  WBC, 14thday of medication: 12.1 ± 0.24
WBC; rLZ-8 1.25 μg·kg−1
  WBC, 3rdday of medication: 2.8 ± 0.12
  WBC, 7thday of medication: 11.0 ± 0.47
  WBC, 14thday of medication: 10.3 ± 0.45
WBC; rLZ-8 2.5 μg·kg−1
  WBC, 3rdday of medication: 1.7 ± 0.18
  WBC, 7thday of medication: 12.8 ± 0.11
  WBC, 14thday of medication: 10.6 ± 0.29
WBC; rLZ-8 5 μg·kg−1
  WBC, 3rdday of medication: 2.6 ± 0.64
  WBC, 7thday of medication: 17.6 ± 0.23
  WBC, 14thday of medication: 11.2 ± 0.26
WBC; rLZ-8 10 μg·kg−1
  WBC, 3rdday of medication: 1.6 ± 0.71
  WBC, 7thday of medication: 15.8 ± 0.33
  WBC, 14thday of medication: 10.9 ± 0.21
WBC; rLZ-8 20 μg·kg−1
  WBC, 3rdday of medication: 1.6 ± 0.33
  WBC, 7thday of medication: 15.8 ± 0.13
  WBC, 14thday of medication: 9.8 ± 0.19
[1]; mouse, in vivo
  systemic allergic reaction caused by BSA (in words): could inhibit systemic allergic reaction
[1]; rLZ-8 dose 1, shock BSA (i.v.)
  Death number/total: 0/10
  Sensitization number/total: 5/10
[1]; [3]
  Death number/total: 0/10
  Sensitization number/total: 9/10
[2]; 3.125-100 μg·ml^−1
  lethal effect in vitro on K562 tumor cells (in words): strong lethal effect
[2]; rLZ-8 3.125 μg ml^−1, 48 h
  Growth inhibition rate (%): 34.7%
  OD570 nm: 0.66 ± 0.03
[2]; rLZ-8 6.25 μg ml^−1, 48 h
  Growth inhibition rate (%): 42.6%
  OD570 nm: 0.58 ± 0.03
[2]; rLZ-8 12.5 μg ml^−1, 48 h
  Growth inhibition rate (%): 48.5%
  OD570 nm: 0.52 ± 0.05
[2]; rLZ-8 25 μg ml^−1, 48 h
  Growth inhibition rate (%): 69.3%
  OD570 nm: 0.31 ± 0.02
[2]; rLZ-8 50 μg ml^−1, 48 h
  Growth inhibition rate (%): 75.2%
  OD570 nm: 0.25 ± 0.04
[2]; rLZ-8 100 μg ml^−1, 48 h
  Growth inhibition rate (%): 81.2%
  OD570 nm: 0.19 ± 0.03
K562; K562, rLZ-8 0.1 μg·ml^−1, 24 h
  Apoptosis rate: 16.43%
K562; K562, rLZ-8 0.5 μg·ml^−1, 24 h
  Apoptosis rate: 17.91%
K562; K562, rLZ-8 2.5 μg·ml^−1, 24 h
  Apoptosis rate: 21.57%
